Test results from PMC9482650, “Quantitative fragmentomics allow affinity mapping of interactomes” (Nature Communications, 2022).

What was measured:
Assay in all cases: holdup assay
Design in all cases: key: below the threshold = too weak to quantify, mostly under pKd 3.1 to 4
Conditions in all cases: plain residues with an end cap or a label only (N-terminal biotin on a linker: ado-ado)
[1] = molecular target: T1, CARD11, Q9BXL7
T1 sequence (Q9BXL7 662-765, limits assumed, looked up): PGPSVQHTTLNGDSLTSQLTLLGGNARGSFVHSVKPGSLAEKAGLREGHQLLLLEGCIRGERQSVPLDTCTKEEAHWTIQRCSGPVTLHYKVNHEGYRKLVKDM

[2] = molecular target: DLG2_3, Q15700
[3] = molecular target: MAST1, Q9Y2H9
MAST1, Q9Y2H9, sequence (Q9Y2H9 962-1065): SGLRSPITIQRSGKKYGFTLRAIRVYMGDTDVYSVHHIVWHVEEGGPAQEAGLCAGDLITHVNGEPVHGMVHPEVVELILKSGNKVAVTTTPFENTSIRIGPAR

[4] = molecular target: NHERF2_2, Q15599
NHERF2_2, Q15599, sequence (Q15599 142-238): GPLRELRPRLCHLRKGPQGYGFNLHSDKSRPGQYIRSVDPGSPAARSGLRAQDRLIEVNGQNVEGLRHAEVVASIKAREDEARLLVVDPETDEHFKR

[5] = molecular target: T2, PCLO, Q9Y6V0
T2 sequence (Q9Y6V0 4491-4600, limits assumed, looked up): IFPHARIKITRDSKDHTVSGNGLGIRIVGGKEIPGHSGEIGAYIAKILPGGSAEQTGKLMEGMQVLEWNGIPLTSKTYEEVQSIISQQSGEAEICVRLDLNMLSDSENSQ

[6] = molecular target: T3, HTRA4, P83105
T3 sequence (P83105 378-476, limits assumed, looked up): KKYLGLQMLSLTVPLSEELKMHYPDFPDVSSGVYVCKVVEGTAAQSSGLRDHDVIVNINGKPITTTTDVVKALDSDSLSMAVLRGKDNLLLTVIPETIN

[7] = molecular target: T4, MPP7, Q5T2T1
T4 sequence (Q5T2T1 134-230, limits assumed, looked up): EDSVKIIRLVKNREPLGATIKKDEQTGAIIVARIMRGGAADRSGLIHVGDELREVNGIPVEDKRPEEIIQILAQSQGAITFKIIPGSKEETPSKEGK

[8] = molecular target: NHERF4_1, Q86UT5-2
NHERF4_1, Q86UT5-2, sequence (Q86UT5 other isoform, or with tags, fused parts or gaps): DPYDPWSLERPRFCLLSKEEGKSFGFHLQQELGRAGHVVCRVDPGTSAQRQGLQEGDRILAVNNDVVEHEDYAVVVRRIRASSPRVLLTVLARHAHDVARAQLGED

[9] = molecular target: Inadl_9, Q8NI35
Inadl_9, Q8NI35, sequence (Q8NI35 1530-1615): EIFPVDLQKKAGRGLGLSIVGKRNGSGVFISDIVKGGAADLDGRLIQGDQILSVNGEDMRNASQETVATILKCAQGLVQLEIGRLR

[10] = molecular target: MAGI2_5, Q86UL8
MAGI2_5, Q86UL8, sequence (Q86UL8 915-1017): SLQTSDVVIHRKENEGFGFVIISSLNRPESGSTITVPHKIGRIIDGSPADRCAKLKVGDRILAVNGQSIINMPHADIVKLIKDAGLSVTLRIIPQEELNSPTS

[11] = molecular target: T5, PARD3B_1, Q8TEW8
T5 sequence (Q8TEW8 196-299, limits assumed, looked up): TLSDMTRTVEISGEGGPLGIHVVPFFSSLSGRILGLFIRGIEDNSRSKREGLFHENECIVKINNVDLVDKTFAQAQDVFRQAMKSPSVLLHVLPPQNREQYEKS

[12] = molecular target: T6, SYNJ2BP, P57105
T6 sequence (P57105 8-110, limits assumed, looked up): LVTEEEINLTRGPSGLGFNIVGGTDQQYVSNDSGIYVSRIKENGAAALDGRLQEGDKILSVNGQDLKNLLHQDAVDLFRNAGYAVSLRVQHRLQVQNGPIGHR

[13] = molecular target: T7, SNTA1, Q13424
T7 sequence (Q13424 82-180, limits assumed, looked up): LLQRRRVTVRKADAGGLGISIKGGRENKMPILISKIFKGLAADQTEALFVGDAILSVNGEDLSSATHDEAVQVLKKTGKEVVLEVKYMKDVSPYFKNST

[14] = molecular target: IL16_1, Q14005
IL16_1, Q14005, sequence (Q14005 210-306): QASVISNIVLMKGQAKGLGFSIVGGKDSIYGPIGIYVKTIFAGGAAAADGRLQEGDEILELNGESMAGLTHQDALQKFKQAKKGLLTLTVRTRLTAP

[15] = molecular target: T8, LNX2_3, Q8N448
T8 sequence (Q8N448 463-564, limits assumed, looked up): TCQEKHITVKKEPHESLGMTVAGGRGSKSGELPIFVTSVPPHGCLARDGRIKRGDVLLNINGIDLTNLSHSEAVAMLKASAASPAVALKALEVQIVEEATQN

[16] = molecular target: ARHGEF12, Q9NZN5-2
ARHGEF12, Q9NZN5-2, sequence (Q9NZN5 other isoform, or with tags, fused parts or gaps): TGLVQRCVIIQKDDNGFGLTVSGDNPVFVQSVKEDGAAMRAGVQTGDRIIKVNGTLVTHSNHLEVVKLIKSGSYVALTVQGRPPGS

[17] = molecular target: TJP1_2, Q07157
TJP1_2, Q07157, sequence (Q07157 181-274): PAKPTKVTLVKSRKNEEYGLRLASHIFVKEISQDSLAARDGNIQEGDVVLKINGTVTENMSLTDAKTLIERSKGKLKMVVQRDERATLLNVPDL

[18] = molecular target: T9, HTRA3, P83110
T9 sequence (P83110 354-453, limits assumed, looked up): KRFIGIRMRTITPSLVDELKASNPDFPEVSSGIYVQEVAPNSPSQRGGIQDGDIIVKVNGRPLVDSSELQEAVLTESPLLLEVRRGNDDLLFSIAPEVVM

[19] = molecular target: SCRIB_2, Q14160
SCRIB_2, Q14160, sequence (Q14160 857-960): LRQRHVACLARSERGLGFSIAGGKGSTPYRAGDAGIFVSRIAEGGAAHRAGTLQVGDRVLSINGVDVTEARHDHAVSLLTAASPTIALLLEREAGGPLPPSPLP

[20] = molecular target: T10, SNTG2, Q9NY99
T10 sequence (Q9NY99 68-166, limits assumed, looked up): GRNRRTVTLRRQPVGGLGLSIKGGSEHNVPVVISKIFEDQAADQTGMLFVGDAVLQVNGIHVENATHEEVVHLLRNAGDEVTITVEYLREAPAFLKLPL

[21] = molecular target: NOS1, P29475
NOS1, P29475, sequence (P29475 9-101): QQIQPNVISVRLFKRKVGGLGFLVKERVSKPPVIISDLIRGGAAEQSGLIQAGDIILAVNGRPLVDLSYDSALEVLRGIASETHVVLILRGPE

[22] = molecular target: Inadl_3, Q8NI35
Inadl_3, Q8NI35, sequence (Q8NI35 359-469): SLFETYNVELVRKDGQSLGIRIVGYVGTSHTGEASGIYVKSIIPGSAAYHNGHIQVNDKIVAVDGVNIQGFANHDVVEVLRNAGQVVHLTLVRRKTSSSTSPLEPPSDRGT

[23] = molecular target: T11, SNTG1, Q9NSN8
T11 sequence (Q9NSN8 52-150, limits assumed, looked up): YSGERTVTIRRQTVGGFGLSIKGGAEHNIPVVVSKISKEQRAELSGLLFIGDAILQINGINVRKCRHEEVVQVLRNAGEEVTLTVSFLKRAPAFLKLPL

[24] = molecular target: PARD3_3, Q8TEW0
PARD3_3, Q8TEW0, sequence (Q8TEW0 582-685): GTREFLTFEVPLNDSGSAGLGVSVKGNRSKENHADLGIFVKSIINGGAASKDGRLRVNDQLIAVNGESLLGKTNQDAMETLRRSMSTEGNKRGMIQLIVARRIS

[25] = molecular target: AHNAK1, Q09666
AHNAK1, Q09666, sequence (Q09666 4-100): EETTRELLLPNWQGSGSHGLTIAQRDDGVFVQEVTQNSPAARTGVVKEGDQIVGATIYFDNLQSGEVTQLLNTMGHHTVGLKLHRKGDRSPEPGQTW

[26] = molecular target: Inadl_4, Q8NI35
Inadl_4, Q8NI35, sequence (Q8NI35 547-651): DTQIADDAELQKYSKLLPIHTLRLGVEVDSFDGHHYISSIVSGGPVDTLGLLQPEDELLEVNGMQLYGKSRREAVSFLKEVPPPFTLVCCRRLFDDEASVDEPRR

B1: FKBP4, Q02790 (peptide)
chain: GSQSQVETEA
- pKd [1]: below the threshold
- pKd [2]: 3.82
- pKd [3]: 3.96
- pKd [4]: below the threshold
- pKd [5]: below the threshold
- pKd [6]: below the threshold
- pKd [7]: below the threshold
- pKd [8]: 3.97
- pKd [9]: below the threshold
- pKd [10]: below the threshold
- pKd [11]: below the threshold
- pKd [12]: below the threshold
- pKd [13]: below the threshold
- pKd [14]: below the threshold
- pKd [15]: below the threshold
- pKd [16]: below the threshold
- pKd [17]: below the threshold
- pKd [18]: below the threshold
- pKd [19]: below the threshold
- pKd [20]: below the threshold
- pKd [21]: below the threshold
- pKd [22]: below the threshold
- pKd [23]: below the threshold
- pKd [24]: below the threshold
- pKd [25]: below the threshold
- pKd [26]: below the threshold

B2: EXOC4, Q96A65 (peptide)
chain: ATKDKKITTV
- pKd [1]: below the threshold
- pKd [2]: 4.58
- pKd [3]: below the threshold
- pKd [4]: 3.6
- pKd [5]: below the threshold
- pKd [6]: 3.49
- pKd [7]: below the threshold
- pKd [8]: 3.64
- pKd [9]: 3.63
- pKd [10]: 3.63
- pKd [11]: below the threshold
- pKd [12]: 4.14
- pKd [13]: 4.26
- pKd [14]: below the threshold
- pKd [15]: 3.48
- pKd [16]: 4.87
- pKd [17]: 3.73
- pKd [18]: below the threshold
- pKd [19]: 3.49
- pKd [20]: 3.92
- pKd [21]: 3.69
- pKd [22]: below the threshold
- pKd [23]: 3.72
- pKd [24]: below the threshold
- pKd [25]: below the threshold
- pKd [26]: below the threshold

B3: MCC, P23508 (peptide)
chain: SRPHTNETSL
- pKd [1]: below the threshold
- pKd [2]: 3.95
- pKd [3]: 4.96
- pKd [4]: 4.49
- pKd [5]: below the threshold
- pKd [6]: below the threshold
- pKd [7]: below the threshold
- pKd [8]: 4.12
- pKd [9]: below the threshold
- pKd [10]: 3.72
- pKd [11]: 3.7
- pKd [12]: 4.84
- pKd [13]: 4.47
- pKd [14]: below the threshold
- pKd [15]: below the threshold
- pKd [16]: 4.68
- pKd [17]: below the threshold
- pKd [18]: below the threshold
- pKd [19]: 4.28
- pKd [20]: 4.66
- pKd [21]: below the threshold
- pKd [22]: below the threshold
- pKd [23]: 3.93
- pKd [24]: below the threshold
- pKd [25]: below the threshold
- pKd [26]: below the threshold

B4: GYPC, P04921 (peptide)
chain: GDSSRKEYFI
- pKd [1]: below the threshold
- pKd [2]: 3.84
- pKd [3]: below the threshold
- pKd [4]: below the threshold
- pKd [5]: below the threshold
- pKd [6]: below the threshold
- pKd [7]: 5.18
- pKd [8]: below the threshold
- pKd [9]: 3.51
- pKd [10]: below the threshold
- pKd [11]: 4.39
- pKd [12]: below the threshold
- pKd [13]: below the threshold
- pKd [14]: below the threshold
- pKd [15]: below the threshold
- pKd [16]: below the threshold
- pKd [17]: below the threshold
- pKd [18]: 4.64
- pKd [19]: 3.69
- pKd [20]: below the threshold
- pKd [21]: 3.64
- pKd [22]: 4.2
- pKd [23]: below the threshold
- pKd [24]: 4.9
- pKd [25]: below the threshold
- pKd [26]: below the threshold
